Reference: article PMC4877171 (Chemical research in toxicology, 2015)

T1: purified rat cytosolic TrxR (rat, UniProt O89049 1-499, selenocysteine at 498)
T1 sequence (looked up): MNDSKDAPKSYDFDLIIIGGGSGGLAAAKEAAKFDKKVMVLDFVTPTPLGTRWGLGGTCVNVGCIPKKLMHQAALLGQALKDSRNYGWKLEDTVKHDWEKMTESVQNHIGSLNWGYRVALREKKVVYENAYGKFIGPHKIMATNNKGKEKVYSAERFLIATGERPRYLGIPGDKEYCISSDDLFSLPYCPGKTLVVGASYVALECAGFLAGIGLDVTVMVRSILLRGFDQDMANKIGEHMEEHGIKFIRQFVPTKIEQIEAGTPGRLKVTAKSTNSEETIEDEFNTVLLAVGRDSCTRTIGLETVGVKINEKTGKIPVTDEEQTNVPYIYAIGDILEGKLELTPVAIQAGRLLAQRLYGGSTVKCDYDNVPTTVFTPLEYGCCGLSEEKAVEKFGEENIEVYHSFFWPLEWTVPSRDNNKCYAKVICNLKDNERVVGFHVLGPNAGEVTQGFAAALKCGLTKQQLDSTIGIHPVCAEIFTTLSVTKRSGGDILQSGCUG


Experiments:
Experiment in all cases: cross-linking
[1] = biological target: Human recombinant TrxR1 mutant enzyme (Sec498Cys) (human) (UniProt Q16881)
[2] = biological target: T1, purified rat cytosolic TrxR
cross-linking = biological target: the molecule itself

stoichiometry N [1]	binding result [2]	Molecule	stoichiometry N (cross-linking)
2		Human recombinant TrxR1 mutant enzyme (Sec498Cys) (from UniProt Q16881-5 1-499)	
	binds	recombinant human Trx1 (natural protein) MVKQIESKTAFQEALDAAGDKLVVVDFSATWCGPCKMIKPFFHSLSEKYSNVIFLEVDVDDCQDVASECEVKCMPTFQFFKKGQKVGEFSGANKEKLEATINELV	2
